The values that follow come from US20050277167A1, “Prolyl 3-hydroxylases” (priority 2004, published 2005).

The target in series [1] is T1, [2,3-3H]-L-proline-labeled procollagen substrate (Gallus gallus, UniProt Q6JHU8).
T1 construct: Purified P3H1 from 15-day-old chick embryos was tested for its enzymatic activity using a labeled procollagen substrate; from tissue; host or cells: 15 day-old chick embryos: rER-enriched extract, gelatin-Sepharose, then 1C10 antibody column eluted at pH 2.5
T1 sequence (Q6JHU8 15-725): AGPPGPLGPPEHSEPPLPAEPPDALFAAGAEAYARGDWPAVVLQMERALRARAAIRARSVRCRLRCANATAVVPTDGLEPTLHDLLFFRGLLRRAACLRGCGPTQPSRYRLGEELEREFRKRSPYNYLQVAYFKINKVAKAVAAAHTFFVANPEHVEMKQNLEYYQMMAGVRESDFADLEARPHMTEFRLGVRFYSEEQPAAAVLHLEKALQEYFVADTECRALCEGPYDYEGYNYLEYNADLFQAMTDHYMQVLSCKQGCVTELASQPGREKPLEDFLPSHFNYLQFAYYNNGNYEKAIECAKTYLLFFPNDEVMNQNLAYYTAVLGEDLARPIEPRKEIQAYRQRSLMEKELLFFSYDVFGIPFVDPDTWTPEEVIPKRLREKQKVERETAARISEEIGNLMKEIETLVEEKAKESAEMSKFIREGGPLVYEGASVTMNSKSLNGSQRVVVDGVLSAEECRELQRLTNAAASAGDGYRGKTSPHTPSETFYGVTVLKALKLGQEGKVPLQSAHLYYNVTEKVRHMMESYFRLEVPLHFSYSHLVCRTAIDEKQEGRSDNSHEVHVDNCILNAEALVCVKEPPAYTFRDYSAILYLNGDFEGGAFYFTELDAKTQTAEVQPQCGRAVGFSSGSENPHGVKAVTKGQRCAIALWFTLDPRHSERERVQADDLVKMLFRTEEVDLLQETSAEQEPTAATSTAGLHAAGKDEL
The experiment in a line: Prolyl 3-hydroxylase activity assay, release of tritiated water (THO) from labeled procollagen substrate. Conditions: same Km expressed per ml reaction volume. In kind it is biochemical, chicken. Here is the method:
Prolyl 3-hydroxylase activity was measured based on the amount of tritiated water (THO) formed from a labeled procollagen substrate (Kivirikko et al. Matrix Biol, 16, 357-368 (1998); Risteli et al. Anal Biochem, 84, 423-431 (1978)) with the following modifications. [2,3-^3H]-L-Proline, 42 Ci/mmol, was purchased from Sigma.[2,3-^3H]-proline-labeled nonhydroxylated procollagen was prepared from the isolated cells of the leg tendons from 12 dozen 15 day-old chicken embryos (Berg et al., Biochemistry, 12, 3395-3401 (1973); Dehm et al. Biochim Biophys Acta, 264, 375-382 (1972); Kivirikko et al., Methods Enzymol, 82 Pt A, 245-304 (1982)). […]
The prolyl 3-hydroxylase reactions were performed as described previously (Kivirikko et al., 1982; Risteli et al., 1978; Tryggvason et al., 1976) but with the following modifications: the enzyme reaction was carried out for 60 minutes at 24° C. in a final volume of 2.0 mls containing 1×10^6 dpm [2,3-^3H]-L-proline-labeled substrate, 0.08 mM FeSO^4, 2 mM ascorbic acid, 0.5 mM 2-oxoglutarate, 0.2 mg/ml catalase, 2 mg/ml bovine serum albumin, 0.1 mM dithiothreitol, and 0.05 M Tris-HCl, pH 7.8. […] A 1.8 ml aliquot of the tritiated water was mixed with 10 mls Ecolume liquid scintillation cocktail (ICN) and counted in a Beckman LS5000TD liquid scintillation counter. […]

Series [2] concerns the target T2, (Pro-Pro-Gly)10 substrate (Gallus gallus, UniProt Q6JHU8).
T2 construct: Purified P3H1 from 15-day-old chick embryos was tested for its enzymatic activity using a labeled procollagen substrate; from tissue; host or cells: 15 day-old chick embryos: rER-enriched extract, gelatin-Sepharose, then 1C10 antibody column eluted at pH 2.5
T2 sequence (Q6JHU8 15-725): T1 sequence (Q6JHU8 15-725)
The experiment in a line: Prolyl 4-hydroxylase activity assay, hydroxylation-coupled decarboxylation of 2-oxo[1-14C]glutarate. In kind it is biochemical. Conditions: purified P3H1 enzyme. The procedure:
The prolyl 4-hydroxylase activity was assayed by a method based on the hydroxylation-coupled decarboxylation of 2-oxo[1-^14C]glutarate (Kivirikko et al., 1982). The reaction was performed in a final volume of 1.0 ml, which contained 0.1 mg (Pro-Pro-Gly)10.9H^2O as substrate, 2 mM ascorbic acid, 0.05 mM FeSO^4, 0.1 mM dithiothreitol, 2 mg/ml bovine serum albumin, 0.1 mg/ml catalase, 50 mM Tris-HCl, pH 7.8, and 0.1 mM 2-oxo[1-^14C]glutarate (100,000 dpm). The reaction was stopped by the addition of 1 ml of 1 M KH2PO4, pH 5.0.

B1: P3H1: prolyl 3-hydroxylase 1 purified from 15-day-old chick embryos, chicken homologue of leprecan (protein)
chain: T1 sequence (Q6JHU8 15-725)
Consider B1, for which the Km in series [1] is 89.5 μl of substrate per ml. Besides, the “prolyl 4-hydroxylase activity” value in series [2] is reported as “did not have any prolyl 4-hydroxylase activity”.
